Bridge positions count the residues as written; N and C are the ends. Square brackets hold non-standard residues; d marks the D form. 1Nal = N[C@@H](Cc1cccc2ccccc12)C(=O)O; 2Nal = N[C@@H](Cc1ccc2ccccc2c1)C(=O)O; d2Nal = N[C@H](Cc1ccc2ccccc2c1)C(=O)O
Columns and labels:
[1] = biological target: hMC4-R (human) (UniProt P32245); assay: cell-based or functional assay
[2] = biological target: hMC5-R (human) (UniProt P33032); assay: cell-based or functional assay
[3] = biological target: hMC1-R (human) (UniProt Q01726); assay: cell-based or functional assay
[4] = biological target: hMC3-R (human) (UniProt P41968); assay: cell-based or functional assay
[5] = biological target: hMC5-R (human) (UniProt P33032); assay: competition with [125I]-NDP-α-MSH, CHO-K1 membranes
[6] = biological target: hMC1-R (human) (UniProt Q01726); assay: as above
[7] = biological target: hMC3-R (human) (UniProt P41968); assay: as above
[8] = biological target: hMC4-R (human) (UniProt P32245); assay: as above
[9] = biological target: human melanocortin receptor subtype 1 (hMC1-R) (human) (UniProt Q01726); assay: [125I]-NDP-α-MSH competition, membranes
[10] = biological target: human melanocortin receptor subtype 5 (hMC5-R) (human) (UniProt P33032); assay: [125I]-NDP-α-MSH competition, membranes
[11] = biological target: human melanocortin receptor subtype 4 (hMC4-R) (human) (UniProt P32245); assay: [125I]-NDP-α-MSH competition, membranes
[12] = biological target: human melanocortin receptor subtype 3 (hMC3-R) (human) (UniProt P41968); assay: [125I]-NDP-α-MSH competition, membranes
Sequence of human melanocortin receptor subtype 3 (hMC3-R) (human) (P41968 whole entry): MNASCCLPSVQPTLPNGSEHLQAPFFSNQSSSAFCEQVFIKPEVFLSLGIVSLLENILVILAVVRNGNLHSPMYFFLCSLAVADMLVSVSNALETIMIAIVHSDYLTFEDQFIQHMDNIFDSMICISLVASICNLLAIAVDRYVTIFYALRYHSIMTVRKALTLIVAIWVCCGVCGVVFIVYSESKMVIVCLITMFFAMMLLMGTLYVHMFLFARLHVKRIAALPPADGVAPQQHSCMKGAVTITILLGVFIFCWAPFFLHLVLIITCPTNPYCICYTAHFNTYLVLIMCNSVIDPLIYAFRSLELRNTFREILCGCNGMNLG

Sequence of hMC4-R (human) (P32245 whole entry): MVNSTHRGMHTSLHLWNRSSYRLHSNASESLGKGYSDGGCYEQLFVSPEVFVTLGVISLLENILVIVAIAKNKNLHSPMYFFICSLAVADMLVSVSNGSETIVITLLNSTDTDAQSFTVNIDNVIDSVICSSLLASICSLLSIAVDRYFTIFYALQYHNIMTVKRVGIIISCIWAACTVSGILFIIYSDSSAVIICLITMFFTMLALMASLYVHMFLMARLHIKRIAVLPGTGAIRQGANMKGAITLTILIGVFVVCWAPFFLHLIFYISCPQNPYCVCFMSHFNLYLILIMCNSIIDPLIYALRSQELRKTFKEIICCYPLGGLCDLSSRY
Sequence of hMC5-R (human) (P33032 whole entry): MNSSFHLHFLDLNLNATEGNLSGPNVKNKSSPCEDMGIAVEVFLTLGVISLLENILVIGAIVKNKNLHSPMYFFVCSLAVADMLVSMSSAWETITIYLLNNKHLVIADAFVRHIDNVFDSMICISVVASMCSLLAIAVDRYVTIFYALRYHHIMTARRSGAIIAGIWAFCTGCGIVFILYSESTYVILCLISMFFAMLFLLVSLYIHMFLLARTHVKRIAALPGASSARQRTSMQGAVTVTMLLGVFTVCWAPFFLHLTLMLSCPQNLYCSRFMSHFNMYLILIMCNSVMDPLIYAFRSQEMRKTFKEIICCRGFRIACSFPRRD
Sequence of hMC1-R (human) (Q01726 whole entry): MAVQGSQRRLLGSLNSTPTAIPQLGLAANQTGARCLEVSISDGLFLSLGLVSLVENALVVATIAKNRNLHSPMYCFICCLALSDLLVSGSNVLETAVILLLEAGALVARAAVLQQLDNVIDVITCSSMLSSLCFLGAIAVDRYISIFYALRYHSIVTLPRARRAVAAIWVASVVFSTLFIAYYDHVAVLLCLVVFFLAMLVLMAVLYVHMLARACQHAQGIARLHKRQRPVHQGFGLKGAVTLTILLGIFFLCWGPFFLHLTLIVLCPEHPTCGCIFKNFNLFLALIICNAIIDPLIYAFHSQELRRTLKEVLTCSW
Sequence of hMC3-R (human) (P41968 whole entry): as the sequence (P41968 whole entry) above
Sequence of human melanocortin receptor subtype 5 (hMC5-R) (human) (P33032 whole entry): as the sequence (P33032 whole entry) above
Sequence of human melanocortin receptor subtype 1 (hMC1-R) (human) (Q01726 whole entry): as the sequence (Q01726 whole entry) above
Sequence of human melanocortin receptor subtype 4 (hMC4-R) (human) (P32245 whole entry): as the sequence (P32245 whole entry) above

Row | Substance | cAMP EC50 [1] [nM] | cAMP EC50 [2] [nM] | cAMP EC50 [3] | cAMP EC50 [4] [nM] | other results
1 | Ac-1-Nal-Arg-c(Cys-D-Ala-His-D-Phe-Arg-Trp-Cys)-NH2 (peptide; unit assumed) | 0.363 | 1320 | 8.67 nM | 4.21 | –
2 | Ac-2-Nal-Arg-c(Cys-D-Ala-His-D-Phe-Arg-Trp-Cys)-NH2 (peptide; unit assumed) | 0.275 | 1730 | 9.66 nM | 6.11 | –
3 | Ac-Arg-c(Asp-His-D-Phe-Arg-Trp-Ala-Lys)-NH2 (peptide; unit assumed) | 0.055 | 467 | 1.39 nM | 2.89 | –
4 | Ac-Arg-c(Cys-D-Ala-His-D-2-Nal-Arg-Trp-Cys)-NH2 (peptide; unit assumed) | – | 1110 | 193 nM | – | cAMP Kb [1]: 1.58 nM; cAMP Kb [4]: 5.72 nM
5 | Ac-Arg-c(Cys-D-Ala-His-D-Phe-Arg-Trp-Pen)-NH2 (peptide; unit assumed) | – | 10000 | 48.3 nM | 13.3 | –
6 | Ac-CEH[d2Nal]R[1Nal]ACPPKD-NH2 (disulfide 1-8) | – | – | 269 | – | cAMP Kb [1]: 5.92; cAMP Kb [4]: 105
7 | Ac-CEH[d2Nal]R[2Nal]ACPPKD-NH2 (disulfide 1-8) | – | – | 33.6 | – | cAMP Kb [1]: 12.2; cAMP Kb [4]: 140
8 | Ac-Cha-c(Asp-His-D-2-Nal-Arg-Trp-Gaba-Lys)-NH2 (peptide; unit assumed) | – | 0.736 | 1.27 nM | – | cAMP Kb [1]: 0.442 nM; cAMP Kb [4]: 3.02 nM
9 | Ac-Cha-c(Asp-His-D-Phe-Arg-Trp-Gaba-Lys)-NH2 (peptide; unit assumed) | 0.0949 | 30.2 | 3.26 nM | 0.189 | –
10 | Ac-D-Arg-c(Asp-His-D-Phe-Arg-Trp-Ala-Lys)-NH2 (peptide; unit assumed) | 0.078 | 297 | 1.48 nM | 5.76 | –
11 | Ac-D-Arg-c(Cys-D-Ala-His-D-Phe-Arg-Trp-Cys)-NH2 (peptide) | – | – | – | – | Ki [5]: 352 nM
12 | Ac-D-Arg-c(Cys-D-Ala-His-D-Phe-Arg-Trp-Pen)-NH2 (peptide) | – | – | – | – | Ki [5]: 816 nM; Ki [6]: 8.29 nM; Ki [7]: 13.3 nM
13 | Ac-D-Arg-c(Cys-D-Ala-His-D-Phe-Arg-Trp-Pen)-NH2 (peptide; unit assumed) | – | 2440 | 26.5 nM | 10.5 | –
14 | Ac-Nle-c(Asp-His-D-2-Nal-Arg-Trp-Ala-Lys)-NH2 (peptide; unit assumed) | – | – | 0.619 nM | – | –
15 | Ac-Nle-c(Asp-His-D-2-Nal-Arg-Trp-Lys)-β-Ala-β-Ala-Tyr-Gly-Arg-Lys-Lys-Arg-Arg-Gln-Arg-Arg-Arg-NH2 (peptide; in nM (unit assumed)) | – | – | 1.39 | – | cAMP Kb [1]: 7.94; cAMP Kb [4]: 16.2
16 | Ac-Nle-c(Asp-His-D-2-Nal-Arg-Trp-β-Ala-Lys)-NH2 (peptide) | – | – | – | – | Ki [6]: 0.648 nM
17 | Ac-Nle-c(Asp-His-D-2-Nal-Arg-Trp-β-Ala-Lys)-NH2 (peptide; unit assumed) | – | – | 0.913 nM | – | –
18 | Ac-Nle-c(Asp-His-D-Phe-Arg-Trp-Gaba-Lys)-NH2 (peptide; unit assumed) | 0.131 | 3.48 | 1.37 nM | 0.628 | –
19 | Ac-Nle-c(Asp-His-D-Phe-Arg-Trp-β-Ala-Lys)-NH2 (peptide; unit assumed) | 0.128 | 2.79 | 0.834 nM | 0.145 | –
20 | Ac-Nle-c(Cys-3-Pal-D-Phe-Arg-Trp-Gaba-Cys)-NH2 (peptide) | – | – | – | – | Ki [5]: 92.6 nM; Ki [6]: 21.1 nM; Ki [7]: 151 nM
21 | Ac-Nle-c(Cys-D-Ala-His-D-2-Nal-Arg-Trp-Cys)-NH2 (peptide; unit assumed) | – | 11.8 | 17.6 nM | – | cAMP Kb [1]: 38.8 nM; cAMP Kb [4]: 12.4 nM
22 | Ac-Nle-c(Cys-D-Ala-His-D-Phe-Arg-Trp-Cys)-NH2 (peptide; unit assumed) | 0.078 | 420 | 2.4 nM | 0.33 | –
23 | Ac-Nle-c(Cys-D-Ala-His-D-Phe-Arg-Trp-Pen)-NH2 (peptide; unit assumed) | 0.183 | 2240 | 14.3 nM | 2.03 | –
24 | Ac-Nle-c(Cys-D-Cha-His-D-Phe-Arg-Trp-Cys)-NH2 (peptide; unit assumed) | 0.453 | 45.3 | 0.819 nM | 0.541 | –

Row | Substance | cAMP EC50 [1] [nM] | cAMP EC50 [2] [nM] | cAMP EC50 [3] | cAMP EC50 [4] [nM] | other results
25 | Ac-Tyr-Arg-c(Cys-D-Ala-His-D-Phe-Arg-Trp-Cys)-NH2 (peptide; unit assumed) | – | 1540 | – | 2.39 | –
26 | Ac-WRC[dA]H[dF]RWC-NH2 (disulfide 3-9) | 0.219 | 2580 | 5.78 nM | 3.95 | –
27 | Ac-c(Cys-Glu-His-D-2-Nal-Arg-Bal-Ala-Cys)-Pro-Pro-Lys-Asp-NH2 (peptide; in nM (unit assumed)) | – | – | 690 | – | cAMP Kb [1]: 4.56; cAMP Kb [4]: 70.7
28 | Ac-c(Cys-Glu-His-D-2-Nal-Arg-Trp-Ala-Cys)-Pro-Pro-Lys-Asp-β-Ala-Tyr-Gly-Arg-Lys-Lys-Arg-Arg-Gln-Arg-Arg-Arg-NH2 (peptide; in nM (unit assumed)) | – | – | 6.3 | – | cAMP Kb [1]: 1.66; cAMP Kb [4]: 70
29 | Ac-hCha-c(Asp-His-D-Phe-Arg-Trp-Gaba-Lys)-NH2 (peptide; unit assumed) | 7.24 | 415 | 2.27 nM | 3.32 | –
30 | Ac-hPhe-c(Asp-His-D-2-Nal-Arg-Trp-Gaba-Lys)-NH2 (peptide) | – | – | – | – | Ki [8]: 0.931 nM; Ki [6]: 0.461 nM; Ki [7]: 2.45 nM
31 | Ac-hPhe-c(Asp-His-D-2-Nal-Arg-Trp-Gaba-Lys)-NH2 (peptide; unit assumed) | – | 0.307 | 0.413 nM | – | cAMP Kb [1]: 0.824 nM; cAMP Kb [4]: 9.32 nM
32 | Hydantoin(C(O)-(Ala-Gly))-c(Cys-D-Ala-His-D-Phe-Arg-Trp-Cys)-NH2 (peptide; unit assumed) | 0.241 | – | 17.6 nM | 2.23 | –
33 | Hydantoin(C(O)-(Arg-Gly))-c(Cys-D-Ala-His-D-Phe-Arg-Trp-Cys)-NH2 (peptide; unit assumed) | 0.503 | – | 8.81 nM | 18.2 | –
34 | Hydantoin(C(O)-(Arg-Gly))-c(Cys-Glu-His-D-Phe-Arg-Trp-Cys)-NH2 (peptide; unit assumed) | 0.0979 | – | 8.83 nM | 7.86 | –
35 | Hydantoin(C(O)-(D-Ala-Gly))-c(Cys-D-Ala-His-D-Phe-Arg-Trp-Cys)-NH2 (peptide) | – | 355 | – | – | Ki [9]: 11.7 nM; Ki [10]: 34.7 nM; Ki [11]: 4.28 nM
36 | Hydantoin(C(O)-(D-Ala-Gly))-c(Cys-D-Ala-His-D-Phe-Arg-Trp-Cys)-NH2 (peptide; unit assumed) | 0.309 | – | 4.7 nM | 2.22 | –
37 | Hydantoin(C(O)-(D-Ala-Nle))-c(Cys-D-Ala-His-D-Phe-Arg-Trp-Cys)-NH2 (peptide) | – | – | – | – | Ki [12]: 63.9 nM; Ki [9]: 16 nM; Ki [10]: 1820 nM
38 | Hydantoin(C(O)-(D-Arg-Gly))-c(Cys-D-Ala-His-D-Phe-Arg-Trp-Cys)-NH2 (peptide; unit assumed) | 0.513 | – | 11.5 nM | 23.2 | –
39 | Hydantoin(C(O)-(D-Arg-Gly))-c(Cys-Glu-His-D-Phe-Arg-Trp-Cys)-NH2 (peptide; unit assumed) | 0.16 | – | 18 nM | 17.1 | –
40 | Hydantoin(C(O)-(Gly-Arg))-c(Cys-D-Ala-His-D-Phe-Arg-Trp-Cys)-NH2 (peptide; unit assumed) | 0.599 | – | 8.85 nM | 5.17 | –
41 | Hydantoin(C(O)-(Gly-Arg))-c(Cys-Glu-His-D-Phe-Arg-Trp-Cys)-NH2 (peptide; unit assumed) | 0.0687 | – | 9.97 nM | 3.63 | –
42 | Hydantoin(C(O)-(Gly-D-Arg))-c(Cys-D-Ala-His-D-Phe-Arg-Trp-Cys)-NH2 (peptide; unit assumed) | 0.435 | – | 7.53 nM | 11.6 | –
43 | Hydantoin(C(O)-(Gly-D-Arg))-c(Cys-Glu-His-D-Phe-Arg-Trp-Cys)-NH2 (peptide; unit assumed) | 0.125 | – | 12.9 nM | 10.3 | –
44 | Hydantoin(C(O)-(Gly-Gly))-c(Cys-D-Ala-His-D-Phe-Arg-Trp-Cys)-NH2 (peptide; unit assumed) | 0.336 | – | 14.2 nM | 2.46 | –
45 | Hydantoin(C(O)-(Gly-Gly))-c(Cys-Glu-His-D-Phe-Arg-Trp-Cys)-NH2 (peptide; unit assumed) | 0.214 | – | 124 nM | 8.05 | –
46 | Hydantoin(C(O)-(Nle-Gly))-c(Cys-D-Ala-His-D-Phe-Arg-Trp-Pen)-NH2 (peptide; unit assumed) | 0.584 | – | 17 nM | 21.5 | –
47 | Hydantoin(C(O)-(Nle-Gly))-c(Cys-Glu-His-D-Phe-Arg-Trp-Cys)-NH2 (peptide; unit assumed) | 0.177 | – | 54.3 nM | 12.2 | –

From patent US20120135923A1, “Use of Melanocortins to Treat Dyslipidemia” (IPSEN PHARMA, S.A.S., priority 2009, published 2012)
